Experimental data taken from the nanobody polyreactivity screen of Harvey et al. (2022).

Assay: yeast display, Sf9 membrane polyspecificity reagent, FACS + sequencing; frameworks hold sequencing errors
Procedure, shortened: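 A nanobody's polyreactivity label depends on the gate it was sorted from. Yeast display cells were stained with 10% biotinylated, detergent-solubilized Sf9 membrane reagent for 1 hour at 4 °C, enriched on streptavidin microbeads and sorted by FACS. The low and high (top ~1%) gates were set on anti-HA fluorescence for expression and streptavidin fluorescence for reagent binding.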

Sequence	polyreactivity (PSR sort gate)
QVQLVESGGGLVQAGGSLRLSCAASGFTFSDNAMGWYRQAPGKERELVAAISRSGGRTYYADSVKGRFTISRDNAKNTVYLQMNSLKPEDTAVYYCAAYQYGMDYWGQGTQVTVSS	high polyreactivity
QVQLVESGGGLVQAGGSLRLSCAASGFTFSENAMGWYRQAPGKERELVADITNGASTNYADSVKGRFTISRDNEKNTVYLLMNSLKPEDTAVYYCATDSYPGLNPDFDYWGLGTQVTVSS	low polyreactivity
QVQLVESGGGLVQAGGSLRLSCAASGFTFSFYAMGWYRQAPGKERELVATIRSGGRTYYADSVKGRFTISRDNAKNTVYLQRNSLKPEDTAVYYCAADDHYGRGFQYYYWGQGTQVTVSS	high polyreactivity
QVQLVESGGGLVQAGGSLRLSCAASGFTFSGYAMGWYRHAPGKERELVAAISSRGGRTYYADSVKGRFTISRDNAKNTVYLQMNSLKPEDTAVYYCAARSRRTDNSVQFDYWGQGTQVTVSS	high polyreactivity
QVQLVESGGGLVQAGGSLRLSCAASGFTFSGYAMGWYRQAPGKERELVAASTRRTGTTYYADSVKGRFTISRDNAKNTVYLQMNSLKPEDTAVYYCNKGYPSPPAGEYGYWGQGTQVTVSS	high polyreactivity
QVQLVESGGGLVQAGGSLRLSCAASGFTFSGYDMGWSRQAPGKERELVAGISSGGVSTTYADSVKGRFTISRDNAKNTVYLQMNSRKPEDTAVYYCNAEWTSFDWGQGTQVTVSS	low polyreactivity
QVQLVESGGGLVQAGGSLRLSCAASGFTFSGYDMGWYRPAPGKERELVAGISSGGVSTTYADSVKGRFTISRDNAKNTVYLQMNSLKPEDTAVYYCNAEWTSFDWGQGTQVTVSS	low polyreactivity
QVQLVESGGGLVQAGGSLRLSCAASGFTFSIYAMGWYRQAPGKERELVAAISGRGSSTYYADSVKGRFTISRDNAKNTVYLQMNSLKPEDTAVYYCKKFHHAYFSSVYSYAGGYWGQGTQVTVSS	high polyreactivity
QVQLVESGGGLVQAGGSLRLSCAASGFTFSKYAMGCSRQAPGKETELVAAISRSAGSTYYADSVKRRFTISREYAKNTVYLQMNSLKPEDTAVYYCARDNPRRPSGYNYSGQGTQVTVSS	high polyreactivity
QVQLVESGGGLVQAGGSLRLSCAASGFTFSKYAMGWYRQAPGKEREFVAAISSRGGRTYYADSVKGRFTISRDNAKNTVYLQMNSLKPEDTAVYYCAVDVHLVTEYDYWGQGTQVTVSS	high polyreactivity
QVQLVESGGGLVQAGGSLRLSCAASGFTFSLYAMGWYRQAPGKERELVARISDSGGGTYYADSVKGRFTISRDNAKNTVYLQMNSLKPEDTAVYYCAAVSVWYVTSTSYRYWRYDYWGQGTQVTVSS	high polyreactivity
QVQLVESGGGLVQAGGSLRLSCAASGFTFSNNAMGRYRQAPGKEREFVAAISGTGGSTYYADSLKGRFTISRDNANNTVYLQMNSLKPEDTAVYYCARRRTYPPGRYYYWGQGTQETVSS	high polyreactivity
QVQLVESGGGLVQAGGSLRLSCAASGFTFSNYAMGWYRQAPGKERELVAAITGSGGSTFYADSVKGRFTISRDNAKNTVYLQMNSLKPEDTAVYYCAAYYWSSKYDYWGQGTQVTVSS	high polyreactivity
QVQLVESGGGLVQAGGSLRLSCAASGFTFSPNAMGGYRQAPGKERELVAAISKRGASTYYADSVKGRFTISRDNAKNTVYLQMNSLKPEDTAVYYCNVGASARKPYDYWGQGTQVTVSS	high polyreactivity
QVQLVESGGGLVQAGGSLRLSCAASGFTFSPNAMGWSTQAPGQEREVVAAITSGGNTYADSVKGRFTISRDNAKNSVYFQMNSLKPDDNAVYYCAKGEGYWYIARYLPVGYGYWGQGTQVTVSS	low polyreactivity
QVQLVESGGGLVQAGGSLRLSCAASGFTFSPYTMGWYRQAPGKERELVATIRYDGTSTYYADSVKGRFTISRDYAKNTVYLQMNSLKPEDTAVYFCAADIWRVYSTFYYWGQGTQVTVSS	low polyreactivity
QVQLVESGGGLVQAGGSLRLSCAASGFTFSRNAMGWYRQAPGKERELVAAIDSGGSTDYADSVKGRFTISRDNAKNTVYLQMNSLKPEDTAVYYCAIASSATRYVQLRQDYDYWGQGTQVTVSS	low polyreactivity
QVQLVESGGGLVQAGGSLRLSCAASGFTFSRNAMGWYRQAPGKERELVAAISGRTGTTYYADSVKGRFTISRDNAKNTVYLQMNSLKTVDTAVYYCAKSSGRYRSDYWGQGTQVTVSS	high polyreactivity
QVQLVESGGGLVQAGGSLRLSCAASGFTFSRNAMGWYRQAPGKERELVAAITSRGGSTYYADSVKGRFTISRDNAKNTVYLQMNSLKPEDTAVYYCNAKLISGIYTADSRSRIYDYWGQGTQVTVSS	high polyreactivity
QVQLVESGGGLVQAGGSLRLSCAASGFTFSRNVLGWYRQAPGKERELIAAITTSYGGTYYADSVKGRFTISRDNAKNTVYLQMNSLKPEDTAVYYCATRYYPNTSYEYYYWGQGTQLTVSS	low polyreactivity
QVQLVESGGGLVQAGGSLRLSCAASGFTFSRYAMGWYRQAPGKERELVAAITASGGTTYYADSVKGRFTISRDNAKNTVYLQMNSLKAEDTAVYYCNALYYYLYGYDYWGQGTQVTVSS	high polyreactivity
QVQLVESGGGLVQAGGSLRLSCAASGFTFSSNAMGWYRQAPGKQRELVAAISKGGGSTYYADSVKGRFTISRDNAKNTGYLQMNSLKPEDTAVYYCAKEYDTYAYTYPYNYWGQGTQVTVSS	high polyreactivity

Sequence	polyreactivity (PSR sort gate)
QVQLVESGGGLVQAGGSLRLSCAASGFTFSSNGMGWYRQAPGKERELVAAITRRGGSTYYADSVKGRFTISRDNAKNTVYLQMNSLKPEDTAVYYCAARRSGTYYGTYKSNGRNYWGQGTQVTVSS	high polyreactivity
QVQLVESGGGLVQAGGSLRLSCAASGFTFSSYAMGWYRQAPGKERELVAAISTRGGSTYYADSVKGRFTISRDNAKNTVYLQMNSLKPEETAVYYCAARYGTSYKVRWTYYAFDYWGQGTQVTVSS	low polyreactivity
QVQLVESGGGLVQAGGSLRLSCAASGFTFSSYAMGWYRQAPGKERELVAAITQSGGRTYYADSVKGRFTISRDNAKNTVYLQMNSLKPEDTADYYCAADVTLWYDYWGQGTQVTVSS	low polyreactivity
QVQLVESGGGLVQAGGSLRLSCAASGFTFSSYYMGWYRQAPGKERELVAAITSSGDDTYYADSVKGRFTISRDNAKNTVYLQMNSLKPEDTAVYYCAAEYTEGYTHDYGGQGTQVTVSS	low polyreactivity
QVQLVESGGGLVQAGGSLRLSCAASGFTFSTYAMGWYRQAPGKERELVAAISRSGGSTYYADSVKGRFTISRDNAKNTVYLQMNSLKPEDTAVYYCNAEGPSYYYIIYDYWGQGTQVTGSS	high polyreactivity
QVQLVESGGGLVQAGGSLRLSCAASGFTFSTYTMGWYRPAPGKVRELVAAITWTGGRKYYADSVKGRFTISRDNAKNTVFLQMNSLKPEDTAVYYCNRAGYTGAEVYGYDYWGQGTQVTVSS	high polyreactivity
QVQLVESGGGLVQAGGSLRLSCAASGFTFSVYVIGWYRQAPGKERELVAAISSGGDTTYADSVKGRFTISRDNAKNTVYLQMNSLKPEDTAVYYCADYRVILYYLYDYWGQGTQVTVSS	low polyreactivity
QVQLVESGGGLVQAGGSLRLSCAASGFTFSWYAMGWYRQAPGKERELVAAISLSGDRTYYADSVKGRFTISRDNANNTVYLQMNSLKPEDTAVYYCVFAFEYWGQGTQVTVSS	low polyreactivity
QVQLVESGGGLVQAGGSLRLSCAASGFTFSWYAMGWYRQAPGKERELVAVITGAGITDYADSVKGRFTISRDNAKNTVYLQMNSLKPEDTAVYYCNAKSDRGVSGSGSGAYDYWGQGTQVTVSS	low polyreactivity
QVQLVESGGGLVQAGGSLRLSCAASGFTFSYNTMGWYREAPGKERELVAAISRSGGRTFYADSVKGRFTISRDNAKNTVYLQMNSLKPEDTAVYYCARPWFDYWGQGTQVTVSS	high polyreactivity
QVQLVESGGGLVQAGGSLRLSCAASGFTFSYNTMGWYRQAPGKERELVAAIDGSGGSTYYADSVKGRFTISRDNAKNTVYLQMNSLKPEDTAVYYCAAEWYRGGEYRRYDYWGQGTQVTVSS	high polyreactivity
QVQLVESGGGLVQAGGSLRLSCAASGFTFSYYAKGWYRQAPGKERELVARISFSGTRTYYADSVKGRFTISRDNAKKTVYLQMKSLKPEDTAVSYWARRPGAWKYVYSGDYWGQGTQVTVSS	high polyreactivity
QVQLVESGGGLVQAGGSLRLSCAASGFTFSYYAKGWYRQAPGKERELVAVISDRGGITYYADSVKGRFTISRDNAKNTVYLQMNSLKPEDTAVYYCAAQNPRYNDRYYYWGQGTQVTVSS	low polyreactivity
QVQLVESGGGLVQAGGSLRLSCAASGFTFSYYAMGWYRQAPGKERELVAAIRGGGSTYADSVKGRFTISRDNAKNTVYLQMHSLKPEDTAVYYCAARYSGSPYPTRRYDYWGQGTQVTVSS	high polyreactivity
QVQLVESGGGLVQAGGSLRLSCAASGFTFSYYAMGWYRQAPGKERELVAAISWNGGSTYYADSVKGRFTISRDNAKNTVYLQMNCLKPEDTAVYYCAADSLLYYYDTGYEYWGQGTQVTVSS	high polyreactivity
QVQLVESGGGLVQAGGSLRLSCAASGFTFSYYAMGWYRQAPGKERELVASISRSGNTYYADSVKGRFTISRDNAKNSVYLQMNSLKPEDTAVYYCAAAYKSYYLDGTYYYWGQGTQVTVSS	high polyreactivity
QVQLVESGGGLVQAGGSLRLSCAASGFTFSYYGMGWYRQAPGKERELVAAISWSGGRTYYADSVKGRFTISRDNAKNTVYLQMNSLKPEDTAVYYCAASAPRGYGYKYYYWGQGTQVTVSS	high polyreactivity
QVQLVESGGGLVQAGGSLRLSCAASGFTFSYYTMGWYRQAPGKERELVAAISSTGVSTYYADSVKGRFTISRDNAKNTVYLQMNSLKPEDTAVYYCAADYYGVYEYYYWGQGTQVTVSS	high polyreactivity
QVQLVESGGGLVQAGGSLRLSCAASGFTFTANAMGWYRQAPGKERELVAAITRNGGRTYYADSVKGRFTLSRDNAKNNVYLQMNSLKPEDTAVYYCAKPNSQRIHDDYDYWGQGTQVTVSS	high polyreactivity
QVQLVESGGGLVQAGGSLRLSCAASGFTFTAYAMGWYRQAPGKERELVAAISYRGGRTNYAYSVKGRFTISRDNAKNTVYLQMNSLKPEDTAVYYCAARPRISTREMDYWGQGTQVTVSS	high polyreactivity
QVQLVESGGGLVQAGGSLRLSCAASGFTFTDYAKGWYRQAPGKERELVAAITKGGGRTYYADSVKWRFTISRDNAKNSVYLQMNSQKPEDTAVYYCNARYQVPYGYWGQGTQVTVSS	low polyreactivity
